Results published in the supplement of paper PMC10567573.

B1: INTS4 (parent)
chain: TIIEPAGESDNPLRFTSGLVVALD
B2: GLTSCR2 (parent)
chain: FQRRNMIEPRERAKFKRKYKVKLV

Variants of: B1
Experiment: protein stability index of a GFP-peptide fusion (GPS, HEK-293T) (PSI 1-6); higher = more stable
Conditions: c terminus: a fixed tail appended
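Also: lentivirally expressed fusions sorted by FACS into six bins by GFP to DsRed ratio, PSI derived from sequencing read proportions per bin multiplied by bin number.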

Protein stability index of substitutions, site by site:
T1: Q 2.96; M 1.68; K 2.68; L 1.83; N 3.36; D 3.21; P 3.06; C 2.38; E 2.68; H 3.23; A 2.45; I 2.2; G 3.82; F 1.83

Variants of: B2
Experiment: as above
Conditions: c terminus: a fixed tail appended

Protein stability index, by site and new letter:
E8: N 2.3; L 2.27; R 1.83; G 2.18; Y 2.23; T 2.05; Q 1.64; K 2.35; M 2.34; W 1.91; F 1.82; H 2.33; V 2.25; P 2.42; C 3.15; D 2.13; I 2.02; S 2.04
V24: N 2.49; Y 2.7; W 1.31; G 2.45; S 2.62; F 2.54; P 2.69; D 3.12; L 1.92; K 3.09; T 2.93; Q 2.62; R 2.71; A 2.96; I 1.91; E 2.96; C 2.25; M 2.25; H 2.15
F15: M 2.76; G 2.96; R 3.73; N 2.69; S 3.08; W 2.12; Q 2.96; I 2.51; D 2.32; T 2.66; Y 2.7; L 3.05; C 2.67; H 3.14; E 2.97; P 2.44; K 3.05; A 2.65; V 2.81
R17: A 2.33; Q 2.07; G 1.99; C 2.18; S 2.77; T 2.56; V 1.96; Y 1.65; F 1.74; M 2.94; H 1.89; D 2.27; I 2.32; W 2.1; K 2.79; L 2.45; N 2.63; P 2.46; E 2.24
K22: I 1.27; R 2.38; G 2.97; C 1.51; W 1.67; V 2.03; Q 2.38; N 2.6; E 2.41; L 1.85; M 2.37; A 1.93; Y 2.08; F 1.73; S 1.94; P 2.38; D 2.27; T 1.89; H 1.72
P9: Y 1.67; W 2.01; L 1.78; D 2.15; G 1.71; I 2.4; V 2.19; S 2.33; T 1.99; H 2.47; K 2.52; C 2.14; N 2.34; R 2.5; M 2.06; Q 2.38; F 2.4; A 3.52
E11: K 2.41; W 2.81; L 2.63; S 2.2; G 2.4; I 1.6; Y 1.91; Q 2.25; N 2.6; V 1.88; F 2.37; R 2.23; D 2.53; M 2.37; P 2.66; A 2.54; T 2.59; H 2.18; C 2.36
L23: K 2.41; T 2.25; P 2.12; H 2.31; I 2.52; A 2.72; Y 2.46; F 1.71; E 2.56; N 2.75; G 3.17; V 2.13; R 3.21; Q 3.43; C 2.73; S 2.61; D 3.1; M 1.69; W 2.15
R10: V 1.58; H 1.95; E 1.98; M 1.92; T 1.99; N 1.63; C 3.03; P 2.2; L 2.47; A 2.56; Q 1.53; Y 2.17; S 2.13; K 2.28; F 2; I 2.11; W 1.76; D 2.58; G 2.12
K16: G 2.18; L 2.53; W 2.7; A 1.62; V 1.86; Y 2.03; R 2.73; N 2.48; M 2.07; Q 1.87; P 1.28; S 2.42; F 2.4; D 2.63; H 2.32; E 1.86; I 2.64; T 2.29; C 1.87
V21: K 3.29; F 2.55; A 2.67; I 2.35; Y 2.61; W 2.44; T 3.07; R 2.86; C 2.97; N 2.87; D 3.31; H 2.79; E 2.46; P 2.33; S 2.5; M 2.34; L 2.28; Q 2.81; G 2.52
K14: T 2.33; D 2.09; S 2.3; N 2.02; R 2.02; M 1.97; G 1.39; I 2.5; A 1.81; F 2.77; P 1.68; Q 1.99; H 2.03; L 1.82; E 2.74; Y 2.39; V 2.17; C 1.26; W 2.85
R12: V 1.5; K 2.41; F 1.47; D 2.31; M 2.69; Q 2.43; H 2.19; G 2.6; Y 1.79; C 2; L 1.79; I 3.04; E 2.5; A 1.87; S 1.84; N 2.45; T 2.15; P 1.72
A13: E 2.56; C 1.98; R 2.72; V 3.38; P 2.02; G 2.08; K 2.37; I 2.13; Q 2.35; Y 2.68; W 1.61; H 2.74; N 3.21; F 1.64; M 2.08; L 2.29; D 1.7; S 2.32; T 2.03
K18: F 1.61; E 2.39; C 2.05; G 1.98; I 2.45; A 2.25; L 1.72; M 2.22; S 2.63; Y 1.71; W 2.3; N 2.4; P 1.92; T 2.24; Q 2.51; D 2.64; V 2.78; H 2.29; R 2.32
K20: W 2.04; T 2.34; P 1.95; G 2.22; R 2.1; S 2.74; Y 1.65; M 2.14; D 2.09; N 2.19; Q 1.93; F 2.52; I 2.07; L 2.08; E 3.17; C 1.93; V 1.99; A 3.25; H 2.62
Y19: H 2.93; K 3.86; T 2.37; R 3.5; S 2.88; V 2.63; C 2.65; W 2.39; A 2.46; L 2.75; P 2.74; E 3.15; I 2.54; N 2.94; M 2.75; D 3.03; G 2.66; Q 2.87; F 2.52
